± gives the uncertainty stated by the source.
B1: Zinc finger MYM-type protein 2, residues 463 to 506; numbered along this chain, Q9UBW7 (parent)
chain: IMNCCEQCGEYLPSKGAGNNVLVIDGQQKRFCCQSCVSEYKQVG

Variants of: B1
Experiment: abundance fitness (aPCA) (normalised: wild type 0, dead -1); higher = more abundant; growth selection in yeast, the domain comes from the species named
Conditions: Homo sapiens

Row | Variant | abundance fitness
1 | IMNCCEQCGVYLPSKGAGNNVLVIDGQQKRFCCQSCVSEYKQVG [E10V] | -0.86 ± 0.1
2 | IMNCCEQCGIYLPSKGAGNNVLVIDGQQKRFCCQSCVSEYKQVG [E10I] | -0.66 ± 0.28
3 | IMNCCEQCGWYLPSKGAGNNVLVIDGQQKRFCCQSCVSEYKQVG [E10W] | -0.4 ± 0.13
4 | IMNCCEQCGNYLPSKGAGNNVLVIDGQQKRFCCQSCVSEYKQVG [E10N] | -0.389 ± 0.14
5 | IMNCCEQCGPYLPSKGAGNNVLVIDGQQKRFCCQSCVSEYKQVG [E10P] | -0.356 ± 0.17
6 | IMNCCEQCGLYLPSKGAGNNVLVIDGQQKRFCCQSCVSEYKQVG [E10L] | -1.08 ± 0.15
7 | IMNCCEQCGDYLPSKGAGNNVLVIDGQQKRFCCQSCVSEYKQVG [E10D] | -0.197 ± 0.1
8 | IMNCCEQCGQYLPSKGAGNNVLVIDGQQKRFCCQSCVSEYKQVG [E10Q] | -0.403 ± 0.092
9 | IMNCCEQCGEDLPSKGAGNNVLVIDGQQKRFCCQSCVSEYKQVG [Y11D] | 0.282 ± 0.11
10 | IMNCCEQCGEALPSKGAGNNVLVIDGQQKRFCCQSCVSEYKQVG [Y11A] | 0.176 ± 0.092
11 | IMNCCEQCGECLPSKGAGNNVLVIDGQQKRFCCQSCVSEYKQVG [Y11C] | 0.035 ± 0.097
12 | IMNCCEQCGEELPSKGAGNNVLVIDGQQKRFCCQSCVSEYKQVG [Y11E] | 0.296 ± 0.091
13 | IMNKCEQCGEYLPSKGAGNNVLVIDGQQKRFCCQSCVSEYKQVG [C4K] | 0.125 ± 0.12
14 | IMNMCEQCGEYLPSKGAGNNVLVIDGQQKRFCCQSCVSEYKQVG [C4M] | -0.146 ± 0.11
15 | IMNDCEQCGEYLPSKGAGNNVLVIDGQQKRFCCQSCVSEYKQVG [C4D] | -0.007 ± 0.12
16 | IMNGCEQCGEYLPSKGAGNNVLVIDGQQKRFCCQSCVSEYKQVG [C4G] | -0.089 ± 0.072
17 | IMNYCEQCGEYLPSKGAGNNVLVIDGQQKRFCCQSCVSEYKQVG [C4Y] | -0.45 ± 0.17
18 | IMNWCEQCGEYLPSKGAGNNVLVIDGQQKRFCCQSCVSEYKQVG [C4W] | -0.242 ± 0.11
19 | IMNRCEQCGEYLPSKGAGNNVLVIDGQQKRFCCQSCVSEYKQVG [C4R] | 0.012 ± 0.069
20 | IMNHCEQCGEYLPSKGAGNNVLVIDGQQKRFCCQSCVSEYKQVG [C4H] | 0.019 ± 0.18

Row | Variant | abundance fitness
21 | IMNQCEQCGEYLPSKGAGNNVLVIDGQQKRFCCQSCVSEYKQVG [C4Q] | 0.142 ± 0.12
22 | IMNSCEQCGEYLPSKGAGNNVLVIDGQQKRFCCQSCVSEYKQVG [C4S] | 0.25 ± 0.11
23 | IMNACEQCGEYLPSKGAGNNVLVIDGQQKRFCCQSCVSEYKQVG [C4A] | -0.147 ± 0.086
24 | IMNNCEQCGEYLPSKGAGNNVLVIDGQQKRFCCQSCVSEYKQVG [C4N] | 0.214 ± 0.24
25 | IMNVCEQCGEYLPSKGAGNNVLVIDGQQKRFCCQSCVSEYKQVG [C4V] | -0.029 ± 0.078
26 | IMNTCEQCGEYLPSKGAGNNVLVIDGQQKRFCCQSCVSEYKQVG [C4T] | -0.021 ± 0.085
27 | IMNLCEQCGEYLPSKGAGNNVLVIDGQQKRFCCQSCVSEYKQVG [C4L] | -0.09 ± 0.07
28 | IMNPCEQCGEYLPSKGAGNNVLVIDGQQKRFCCQSCVSEYKQVG [C4P] | -0.126 ± 0.086
29 | IMNCCEQCDEYLPSKGAGNNVLVIDGQQKRFCCQSCVSEYKQVG [G9D] | -0.671 ± 0.15
30 | IMNCCEQCQEYLPSKGAGNNVLVIDGQQKRFCCQSCVSEYKQVG [G9Q] | -0.067 ± 0.15
31 | IMNCCEQCLEYLPSKGAGNNVLVIDGQQKRFCCQSCVSEYKQVG [G9L] | -0.289 ± 0.1
32 | IMNCCEQCYEYLPSKGAGNNVLVIDGQQKRFCCQSCVSEYKQVG [G9Y] | 0.102 ± 0.15
33 | IMNCCEQCKEYLPSKGAGNNVLVIDGQQKRFCCQSCVSEYKQVG [G9K] | -0.511 ± 0.11
34 | IMNCCEQCTEYLPSKGAGNNVLVIDGQQKRFCCQSCVSEYKQVG [G9T] | -0.018 ± 0.099
35 | IMNCCEQCEEYLPSKGAGNNVLVIDGQQKRFCCQSCVSEYKQVG [G9E] | -0.495 ± 0.11
36 | IMNCCEQCCEYLPSKGAGNNVLVIDGQQKRFCCQSCVSEYKQVG [G9C] | -0.148 ± 0.12
37 | IMNCCEQCWEYLPSKGAGNNVLVIDGQQKRFCCQSCVSEYKQVG [G9W] | -0.442 ± 0.083
38 | IMNCCEQCVEYLPSKGAGNNVLVIDGQQKRFCCQSCVSEYKQVG [G9V] | -0.563 ± 0.083
39 | IMNCCEQCPEYLPSKGAGNNVLVIDGQQKRFCCQSCVSEYKQVG [G9P] | -0.68 ± 0.12
40 | IMNCCEQCREYLPSKGAGNNVLVIDGQQKRFCCQSCVSEYKQVG [G9R] | -0.436 ± 0.076

Row | Variant | abundance fitness
41 | IMNCCEQCAEYLPSKGAGNNVLVIDGQQKRFCCQSCVSEYKQVG [G9A] | -0.17 ± 0.082
42 | IMNCCEQCIEYLPSKGAGNNVLVIDGQQKRFCCQSCVSEYKQVG [G9I] | -0.417 ± 0.17
43 | IMNCCEQCFEYLPSKGAGNNVLVIDGQQKRFCCQSCVSEYKQVG [G9F] | -0.001 ± 0.17
44 | IMNCCEQHGEYLPSKGAGNNVLVIDGQQKRFCCQSCVSEYKQVG [C8H] | -0.233 ± 0.12
45 | IMNCCEQPGEYLPSKGAGNNVLVIDGQQKRFCCQSCVSEYKQVG [C8P] | -0.775 ± 0.097
46 | IMNCCEQVGEYLPSKGAGNNVLVIDGQQKRFCCQSCVSEYKQVG [C8V] | -0.712 ± 0.077
47 | IMNCCEQFGEYLPSKGAGNNVLVIDGQQKRFCCQSCVSEYKQVG [C8F] | -1.18 ± 0.18
48 | IMNCCEQRGEYLPSKGAGNNVLVIDGQQKRFCCQSCVSEYKQVG [C8R] | -0.611 ± 0.089
49 | IMNCCEQAGEYLPSKGAGNNVLVIDGQQKRFCCQSCVSEYKQVG [C8A] | -0.505 ± 0.083
50 | IMNCCEQMGEYLPSKGAGNNVLVIDGQQKRFCCQSCVSEYKQVG [C8M] | -1.1 ± 0.23
51 | IMNCCEQSGEYLPSKGAGNNVLVIDGQQKRFCCQSCVSEYKQVG [C8S] | -0.337 ± 0.1
52 | IMNCCEQYGEYLPSKGAGNNVLVIDGQQKRFCCQSCVSEYKQVG [C8Y] | -0.311 ± 0.48
53 | IMNCCEQDGEYLPSKGAGNNVLVIDGQQKRFCCQSCVSEYKQVG [C8D] | -0.77 ± 0.21
54 | IMNCCEQQGEYLPSKGAGNNVLVIDGQQKRFCCQSCVSEYKQVG [C8Q] | -0.573 ± 0.4
55 | IMNCCEQEGEYLPSKGAGNNVLVIDGQQKRFCCQSCVSEYKQVG [C8E] | -0.307 ± 0.097
56 | IMNCCEQWGEYLPSKGAGNNVLVIDGQQKRFCCQSCVSEYKQVG [C8W] | -1.41 ± 0.12
57 | IMNCCEQGGEYLPSKGAGNNVLVIDGQQKRFCCQSCVSEYKQVG [C8G] | -0.391 ± 0.082
58 | IMNCCEQLGEYLPSKGAGNNVLVIDGQQKRFCCQSCVSEYKQVG [C8L] | -1.05 ± 0.11

From the Human Domainome abundance scans (Beltran et al. 2025)
